Values of other authors in paper PMC5487681, “Identification of Antifungal H^+-ATPase Inhibitors with Effect on Plasma Membrane Potential” (Antimicrobial Agents and Chemotherapy, 2017).

Tested on: C. albicans cells
Parameters: method as in PMID 27139463

B1: lactoferrin: immunoprotein that inhibits Pma1 (protein, UniProt P02788 20-710, looked up)
Lactotransferrin: GRRRSVQWCAVSQPEATKCFQWQRNMRKVRGPPVSCIKRDSPIQCIQAIAENRADAVTLDGGFIYEAGLAPYKLRPVAAEVYGTERQPRTHYYAVAVVKKGGSFQLNELQGLKSCHTGLRRTAGWNVPIGTLRPFLNWTGPPEPIEAAVARFFSASCVPGADKGQFPNLCRLCAGTGENKCAFSSQEPYFSYSGAFKCLRDGAGDVAFIRESTVFEDLSDEAERDEYELLCPDNTRKPVDKFKDCHLARVPSHAVVARSVNGKEDAIWNLLRQAQEKFGKDKSPKFQLFGSPSGQKDLLFKDSAIGFSRVPPRIDSGLYLGSGYFTAIQNLRKSEEEVAARRARVVWCAVGEQELRKCNQWSGLSEGSVTCSSASTTEDCIALVLKGEADAMSLDGGYVYTAGKCGLVPVLAENYKSQQSSDPDPNCVDRPVEGYLAVAVVRRSDTSLTWNSVKGKKSCHTAVDRTAGWNIPMGLLFNQTGSCKFDEYFSQSCAPGSDPRSNLCALCIGDEQGENKCVPNSNERYYGYTGAFRCLAENAGDVAFVKDVTVLQNTDGNNNEAWAKDLKLADFALLCLDGKRKPVTEARSCHLAMAPNHAVVSRMDKVERLKQVLLHQQAKFGRNGSDCPDKFCLFQSETKNLLFNDNTECLARLHGKTTYEKYLGPQYVAGITNLKKCSTSPLLEACEFLRK
  Increase in iATP levels, C. albicans: > 600%
